Here are results for one molecule from patent US20210115153A1 (PEPTRON, published 2021).

The experiment has as its target T1, recombinant hMUC1-C (rhMUC1-C) protein (human, UniProt P15941 961-1152).
T1 construct: Expressed in E. coli Rosetta (not glycosylated), purified from inclusion bodies in 8 M urea over Ni-NTA; also called hMUC1-C terminal protein; not shown: C-terminal His-tag of vector pET-22b
T1 sequence: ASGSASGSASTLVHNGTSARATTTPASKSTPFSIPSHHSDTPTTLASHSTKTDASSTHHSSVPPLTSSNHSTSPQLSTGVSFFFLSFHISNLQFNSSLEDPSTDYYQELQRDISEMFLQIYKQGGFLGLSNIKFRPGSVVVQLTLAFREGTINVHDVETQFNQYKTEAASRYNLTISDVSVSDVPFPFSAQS
In words: ELISA of hybridoma culture supernatant on coated rhMUC1-C. On the procedure:
The total amount of rhMUC1-C-specific IgG was measured by ELISA. A 96-well immunoplate was coated with 10 […] of rhMUC1-C protein (Example 2) and blocked with bovine serum albumin (BSA) in PBS-T (PBS containing 0.1% (v/v) Tween-20). The mouse serum immunized in Example 5, hybridoma cell culture supernatant, or purified antibody was diluted with PBS-T and cultured at room temperature for 2 hours. The plate was washed 3 times with PBS-T and cultured with a goat anti-mouse IgG HRP-conjugated secondary antibody for 1 hour. The plate was developed using TMB substrate solutions A and B (1:1 ratio) (Kirkegaard and Perry Laboratories, Gaithersburg, Md., USA), the absorbance was measured at 450 nm using a Spectra Max 250 microplate reader (Molecular Devices, Sunnyvale, USA), and a colorimetric assay was performed.
The spleen cells from mice immunized with rhMUC1-C protein in Example 5 were fused with SP2/0 myeloma cells (ATCC) using polyethylene glycol (PEG, Sigma-Aldrich). The fused cells were cultured and selected as a hypoxanthine-aminopterin-thymidine (HAT, Sigma-Aldrich) medium. The culture supernatant of the selected hybridoma cells was subjected to testing for binding to rhMUC1-C protein through ELISA and hybridoma cells, which were positive for binding, i.e., produced rhMUC1-C protein-specific antibody, were screened. […]
(ELISA stands for enzyme-linked immunosorbent assay.)

B1: anti-hMUC1 monoclonal antibody purified from hybridoma hMUC1-1H7 (KCLRF-BP-00395) (antibody, V domains shown)
VH: EVQLQQSGAELAKPGASVKMSCKVSGYTFTSYWMHWVKQRPGQGLEWIGYINPGTGYIEYNQKFKDKATLTADKSSSTAYMQLSSLTSEDSAVYYCASSTAPFDYWGQGTTLTVSS
VL: DIVITQSPSSMYASLGERVTITCKASQDIKSYLSWYQQKPWKSPKTLIYYATRLADGVPSRFSGSGSGQDYSLTISSLESDDTATYYCLQYDESPYTFGGGTKLEIKR
notes: also called anti-hMUC1 antibody; anti-hMUC1-C mouse antibody (1H7)
In the case of B1, the binding result was “binds”.
